# Measured values from patent US20260001953A1 (TWIST BIOSCIENCE, published 2026).
# T1: mouse CD117 (mouse, UniProt P05532)
# T1 construct: antigen of the Carterra SPR kinetics; also called murine CD117
# T1 sequence (receptor, looked up): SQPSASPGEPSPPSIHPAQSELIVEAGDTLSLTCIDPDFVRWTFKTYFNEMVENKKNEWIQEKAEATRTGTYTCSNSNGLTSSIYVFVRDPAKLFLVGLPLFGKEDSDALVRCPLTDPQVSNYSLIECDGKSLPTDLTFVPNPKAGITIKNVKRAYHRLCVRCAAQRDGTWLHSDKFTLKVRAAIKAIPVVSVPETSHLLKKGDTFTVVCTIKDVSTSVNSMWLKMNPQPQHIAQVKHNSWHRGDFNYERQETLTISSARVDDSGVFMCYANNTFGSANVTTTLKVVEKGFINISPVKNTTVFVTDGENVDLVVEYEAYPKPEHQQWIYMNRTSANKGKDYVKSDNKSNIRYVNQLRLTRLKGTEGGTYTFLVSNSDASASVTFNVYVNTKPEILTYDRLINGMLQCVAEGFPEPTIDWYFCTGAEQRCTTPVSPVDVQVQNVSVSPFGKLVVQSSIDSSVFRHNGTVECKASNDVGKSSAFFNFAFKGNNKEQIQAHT
# T2: SIGLEC-5 (limits assumed)
# T2 construct: also called OB-BP-2
# T2 receptor: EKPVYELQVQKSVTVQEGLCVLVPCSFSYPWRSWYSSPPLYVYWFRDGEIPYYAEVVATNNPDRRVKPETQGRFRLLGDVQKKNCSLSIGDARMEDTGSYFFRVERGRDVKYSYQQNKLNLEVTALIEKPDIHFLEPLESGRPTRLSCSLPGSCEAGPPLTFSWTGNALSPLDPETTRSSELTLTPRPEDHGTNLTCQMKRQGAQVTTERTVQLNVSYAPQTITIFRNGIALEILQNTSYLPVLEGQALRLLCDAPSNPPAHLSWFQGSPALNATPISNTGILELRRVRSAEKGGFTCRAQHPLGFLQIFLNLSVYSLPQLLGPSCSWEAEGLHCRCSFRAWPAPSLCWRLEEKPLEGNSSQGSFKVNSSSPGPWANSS
# What was measured:
# [1] = biological target: T3, CD117 transiently expressed on Expi293 cells (UniProt P10721 26-976, limits assumed); test: FACS cell binding, Expi293 transiently expressing CD117
# T3 construct: whole, on cells; Two cassettes are described (P2A mVenus and direct mVenus fusion); also called CD117 transient cells; the transient cell line
# T3 sequence (P10721 26-976 limits assumed): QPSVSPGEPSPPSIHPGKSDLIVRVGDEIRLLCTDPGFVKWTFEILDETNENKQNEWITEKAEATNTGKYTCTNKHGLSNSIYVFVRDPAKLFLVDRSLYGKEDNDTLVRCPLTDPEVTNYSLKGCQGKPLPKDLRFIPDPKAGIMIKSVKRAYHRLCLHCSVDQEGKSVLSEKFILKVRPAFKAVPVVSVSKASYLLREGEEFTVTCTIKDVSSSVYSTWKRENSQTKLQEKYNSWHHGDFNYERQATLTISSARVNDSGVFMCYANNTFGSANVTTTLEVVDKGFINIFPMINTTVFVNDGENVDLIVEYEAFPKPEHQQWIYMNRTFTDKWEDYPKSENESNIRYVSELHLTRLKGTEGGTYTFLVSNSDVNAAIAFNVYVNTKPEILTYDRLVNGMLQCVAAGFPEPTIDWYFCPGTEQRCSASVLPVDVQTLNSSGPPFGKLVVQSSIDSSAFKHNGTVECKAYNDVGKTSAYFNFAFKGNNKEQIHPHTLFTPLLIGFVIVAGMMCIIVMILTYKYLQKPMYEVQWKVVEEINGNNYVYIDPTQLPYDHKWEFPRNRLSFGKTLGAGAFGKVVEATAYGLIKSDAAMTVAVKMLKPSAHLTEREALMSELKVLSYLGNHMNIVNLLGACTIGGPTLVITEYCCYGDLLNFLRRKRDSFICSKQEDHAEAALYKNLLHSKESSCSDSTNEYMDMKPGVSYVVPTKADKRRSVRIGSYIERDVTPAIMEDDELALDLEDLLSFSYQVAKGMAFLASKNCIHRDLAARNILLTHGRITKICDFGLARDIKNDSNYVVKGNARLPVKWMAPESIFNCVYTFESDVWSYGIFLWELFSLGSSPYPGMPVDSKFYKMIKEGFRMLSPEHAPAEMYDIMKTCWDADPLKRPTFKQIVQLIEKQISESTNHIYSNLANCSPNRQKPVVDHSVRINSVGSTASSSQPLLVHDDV
# [2] = biological target: T4, Cluster of differentiation 117 (CD117), antigen of epitope binning and ELISA (UniProt P10721 26-520, limits assumed); test: Carterra SPR, human CD117
# T4 construct: also called tyrosine-protein kinase KIT; mast/stem cell growth factor receptor (SCFR)
# T4 sequence (P10721 26-520 limits assumed): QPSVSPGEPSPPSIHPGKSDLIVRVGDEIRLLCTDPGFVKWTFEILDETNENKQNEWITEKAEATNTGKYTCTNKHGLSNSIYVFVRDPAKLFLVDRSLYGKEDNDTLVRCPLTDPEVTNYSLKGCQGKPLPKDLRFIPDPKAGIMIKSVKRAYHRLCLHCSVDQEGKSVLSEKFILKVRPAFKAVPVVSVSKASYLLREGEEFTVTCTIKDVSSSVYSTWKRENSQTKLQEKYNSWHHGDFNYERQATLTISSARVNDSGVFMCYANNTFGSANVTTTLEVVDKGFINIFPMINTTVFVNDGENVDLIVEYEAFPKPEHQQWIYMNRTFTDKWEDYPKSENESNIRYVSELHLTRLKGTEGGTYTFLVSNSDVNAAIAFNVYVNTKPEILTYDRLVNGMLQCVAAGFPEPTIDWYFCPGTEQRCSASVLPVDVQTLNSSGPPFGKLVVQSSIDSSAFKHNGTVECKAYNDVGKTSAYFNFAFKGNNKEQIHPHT
# Protocol: (§1) To further evaluate the antibodies discovered during the screens, 21 clones were selected for detailed characterization and were analyzed for target binding kinetics by a Carterra SPR instrument. The binding kinetics of the anti-CD117 antibodies for human CD117, cynomolgus monkey CD117, and murine CD117 are shown in FIG. 29A-29B.
# cyno CD117 = biological target: T5, cyno CD117 (Macaca fascicularis, UniProt A0A7N9CP24); test: Carterra SPR, cyno CD117
# T5 construct: antigen of the Carterra SPR kinetics; also called cynomolgus monkey CD117
# T5 sequence (A0A7N9CP24 entry or part of it): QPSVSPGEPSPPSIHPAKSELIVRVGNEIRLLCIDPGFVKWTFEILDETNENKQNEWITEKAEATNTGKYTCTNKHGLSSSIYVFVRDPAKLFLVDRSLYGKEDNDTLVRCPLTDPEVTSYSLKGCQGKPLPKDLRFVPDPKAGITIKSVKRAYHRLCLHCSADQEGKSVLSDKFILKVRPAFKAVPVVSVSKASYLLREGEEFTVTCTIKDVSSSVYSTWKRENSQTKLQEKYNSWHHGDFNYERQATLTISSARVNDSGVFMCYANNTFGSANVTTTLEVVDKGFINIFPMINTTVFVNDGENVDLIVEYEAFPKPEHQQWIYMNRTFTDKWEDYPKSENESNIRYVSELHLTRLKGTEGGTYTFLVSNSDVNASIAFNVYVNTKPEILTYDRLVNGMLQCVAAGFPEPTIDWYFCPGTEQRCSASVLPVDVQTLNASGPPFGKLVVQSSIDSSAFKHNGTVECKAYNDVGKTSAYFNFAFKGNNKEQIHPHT
# Protocol: as §1
# [3] = biological target: T3, CD117 transiently expressed on Expi293 …; test: FACS, MFI expressing / parental cells
# mouse CD117 = biological target: T1, mouse CD117; test: Carterra SPR, mouse CD117
# Protocol: as §1
# [4] = biological target: CD117-GFP transiently overexpressed in HEK293T cells (UniProt P10721 26-976); test: cell-based or functional assay
# [5] = biological target: T3, CD117 transiently expressed on Expi293 …; test: flow cytometry titration on CD117 transient cells and on parental Expi293
# Protocol: The transient expression of CD117 was validated with a control antibody, Expi293 (FIGS. 17A-17B). Expi293, […], was transiently transfected with CD117 48-hours post-transfection. The secondary antibody used was APC Goat anti-human IgG (diluted 1:400). 100,000 cells per well were blocked with 1×PBS+0.5% BSA for 1 hour, stained with 100 μL of the primary antibody for 1 hour, and stained with the secondary antibody for one hour, all with 3× washes in between each staining.
# [6] = biological target: T6, SIGLEC-8 transiently expressed on cells (UniProt Q9NYZ4 17-499, limits assumed); test: cell binding titration, transient SIGLEC-8 line
# T6 construct: whole, on cells; Two cassettes are described (P2A mVenus and direct mVenus fusion); also called the transient line; pTT5-SIGLEC-8 P2A mVenus
# T6 sequence (Q9NYZ4 17-499 limits assumed): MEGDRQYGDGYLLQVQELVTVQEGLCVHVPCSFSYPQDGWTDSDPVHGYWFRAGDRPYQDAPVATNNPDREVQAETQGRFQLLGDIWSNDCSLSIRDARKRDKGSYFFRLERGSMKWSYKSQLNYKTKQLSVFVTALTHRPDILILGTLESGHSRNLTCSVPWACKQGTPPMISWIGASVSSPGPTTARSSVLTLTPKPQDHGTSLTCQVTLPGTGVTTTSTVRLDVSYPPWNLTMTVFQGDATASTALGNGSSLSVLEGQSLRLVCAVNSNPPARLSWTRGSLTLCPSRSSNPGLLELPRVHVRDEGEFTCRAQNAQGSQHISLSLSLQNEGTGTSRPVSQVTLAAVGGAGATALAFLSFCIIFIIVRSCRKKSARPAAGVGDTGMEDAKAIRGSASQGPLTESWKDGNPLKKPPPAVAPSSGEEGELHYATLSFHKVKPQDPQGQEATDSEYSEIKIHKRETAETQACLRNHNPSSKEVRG
# [7] = biological target: T7, Sialic acid-binding immunoglobulin-like lectin 8 (SIGLEC-8), antigen of the Carterra SPR studies (UniProt Q9NYZ4 17-363, limits assumed); test: Carterra SPR kinetics, sensorgram panel
# T7 sequence (Q9NYZ4 17-363 limits assumed): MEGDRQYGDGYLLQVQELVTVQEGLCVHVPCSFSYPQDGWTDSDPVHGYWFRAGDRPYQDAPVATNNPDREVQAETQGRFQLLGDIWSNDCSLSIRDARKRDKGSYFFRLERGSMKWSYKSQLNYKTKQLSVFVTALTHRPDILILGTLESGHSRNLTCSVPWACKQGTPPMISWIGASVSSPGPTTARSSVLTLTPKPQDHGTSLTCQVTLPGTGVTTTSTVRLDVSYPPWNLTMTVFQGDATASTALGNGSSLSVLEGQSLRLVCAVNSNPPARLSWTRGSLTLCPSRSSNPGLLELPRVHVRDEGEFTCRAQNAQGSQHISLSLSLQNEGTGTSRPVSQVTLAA
# Procedure, shortened: (§2)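 On a Carterra instrument, surface plasmon resonance was used to measure how antibodies bind SIGLEC-8, with rate constants and dissociation constants as read-outs. The antibodies were taken from synthetic libraries by bead-based panning and clonal ELISA screening, then expressed and purified.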
# [8] = biological target: T7, Sialic acid-binding immunoglobulin-like …; test: Carterra SPR kinetics, summary table
# Procedure, shortened: as §2
# [9] = biological target: T7, Sialic acid-binding immunoglobulin-like …; test: Carterra SPR
# Procedure, shortened: as §2
# [10] = biological target: T6, SIGLEC-8 transiently expressed on cells; test: flow cytometry titration on cells transiently expressing SIGLEC-8 and on parental Expi293
# SIGLEC-7 = biological target: T8, SIGLEC-7; test: SPR cross-reactivity table
# T8 construct: also called p75/AIRM1
# T8 sequence (receptor, as listed by the source limits assumed): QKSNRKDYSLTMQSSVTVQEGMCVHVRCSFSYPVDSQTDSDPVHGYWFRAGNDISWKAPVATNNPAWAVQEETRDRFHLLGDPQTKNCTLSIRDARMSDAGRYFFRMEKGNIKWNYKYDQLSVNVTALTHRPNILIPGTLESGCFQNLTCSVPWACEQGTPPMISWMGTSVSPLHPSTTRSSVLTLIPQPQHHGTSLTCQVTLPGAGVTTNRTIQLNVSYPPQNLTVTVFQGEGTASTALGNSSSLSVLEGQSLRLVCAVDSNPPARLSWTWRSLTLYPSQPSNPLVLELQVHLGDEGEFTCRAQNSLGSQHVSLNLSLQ
# Procedure, shortened: (§3)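 Clones from synthetic libraries, panned for four rounds using beads and screened by clonal ELISA, were expressed and purified. These anti-SIGLEC-8 antibodies were then checked by surface plasmon resonance on a Carterra instrument for cross-reactivity with related SIGLEC proteins. For each protein tested, a dissociation constant or binding result is given.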
# SIGLEC-2 = biological target: T9, SIGLEC-2; test: SPR cross-reactivity table
# T9 construct: also called CD22
# T9 sequence (chain, as listed by the source limits assumed): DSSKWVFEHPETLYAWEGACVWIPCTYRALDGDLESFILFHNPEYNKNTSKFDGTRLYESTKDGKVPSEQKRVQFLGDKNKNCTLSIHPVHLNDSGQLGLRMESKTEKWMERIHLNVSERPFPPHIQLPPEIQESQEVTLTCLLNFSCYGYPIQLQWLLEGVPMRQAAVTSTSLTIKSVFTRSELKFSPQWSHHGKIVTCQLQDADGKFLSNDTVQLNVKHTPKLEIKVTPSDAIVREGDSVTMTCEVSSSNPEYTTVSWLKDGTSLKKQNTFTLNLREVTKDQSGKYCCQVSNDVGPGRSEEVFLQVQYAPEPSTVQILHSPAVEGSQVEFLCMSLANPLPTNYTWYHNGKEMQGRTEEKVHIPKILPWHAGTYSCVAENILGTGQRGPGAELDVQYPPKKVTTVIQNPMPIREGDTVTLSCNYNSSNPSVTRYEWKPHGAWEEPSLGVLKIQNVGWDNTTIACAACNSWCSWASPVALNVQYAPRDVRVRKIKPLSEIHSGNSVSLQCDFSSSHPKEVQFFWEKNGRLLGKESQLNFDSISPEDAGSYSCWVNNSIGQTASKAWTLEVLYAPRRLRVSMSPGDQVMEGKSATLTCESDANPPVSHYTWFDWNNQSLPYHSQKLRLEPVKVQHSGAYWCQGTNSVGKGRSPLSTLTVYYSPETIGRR
# Procedure, shortened: as §3
# SIGLEC-6 = biological target: T10, SIGLEC-6; test: SPR cross-reactivity table
# T10 construct: also called OB-BP-1
# T10 sequence (receptor, as listed by the source limits assumed): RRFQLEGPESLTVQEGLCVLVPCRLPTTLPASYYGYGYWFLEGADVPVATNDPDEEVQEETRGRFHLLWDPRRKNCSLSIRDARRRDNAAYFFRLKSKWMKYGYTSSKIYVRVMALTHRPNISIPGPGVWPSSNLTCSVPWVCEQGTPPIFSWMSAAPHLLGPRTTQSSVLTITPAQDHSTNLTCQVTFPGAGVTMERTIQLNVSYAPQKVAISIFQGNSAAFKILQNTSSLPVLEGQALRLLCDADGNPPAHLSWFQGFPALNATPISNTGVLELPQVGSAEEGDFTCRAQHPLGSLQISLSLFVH
# Procedure, shortened: as §3
# SIGLEC-3 = biological target: T11, SIGLEC-3; test: SPR cross-reactivity table
# T11 construct: also called CD33
# T11 sequence (receptor, as listed by the source limits assumed): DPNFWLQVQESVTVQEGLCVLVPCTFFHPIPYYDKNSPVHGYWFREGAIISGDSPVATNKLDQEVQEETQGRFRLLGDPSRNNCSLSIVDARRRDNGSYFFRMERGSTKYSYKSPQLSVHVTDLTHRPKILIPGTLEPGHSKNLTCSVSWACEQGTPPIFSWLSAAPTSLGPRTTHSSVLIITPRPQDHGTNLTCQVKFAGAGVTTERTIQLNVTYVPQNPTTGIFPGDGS
# Procedure, shortened: as §3
# SIGLEC-5 = biological target: T2, SIGLEC-5; test: SPR cross-reactivity table
# Procedure, shortened: as §3
# [11] = biological target: T7, Sialic acid-binding immunoglobulin-like …; test: Carterra SPR kinetics, sensorgram panel; remark: listed apart in the source
# Procedure, shortened: as §2
EC50 [1] [nM],Kd [2] [nM],koff [2] [s⁻¹],kon [2] [M⁻¹ s⁻¹],Kd (cyno CD117) [nM],koff (cyno CD117) [s⁻¹],kon (cyno CD117) [M⁻¹ s⁻¹],MFI Ratio [3],EC50 [6] [nM],koff [8] [s⁻¹],kon [8] [M⁻¹ s⁻¹],Kd [9] [nM],Binder,also measured
–,–,–,–,–,–,–,–,0.609,1e-05,444000,0.0225,"SIGLEC-8-40 (antibody, human IgG1, kappa, V domains shown, tested as expressed and purified mAb; also called SIBLEC8-40) VH: EVQLLESGGGLVQPGGSLRLSCAASGFTFSFFDMMWVRQAPGKGLEWVSQISETGRRTYYADSVKGRFTISRDNSKNTLYLQMNSLRAEDTAVYYCATAEDEQGYDYWGQGTLVTVSS VL: DIQMTQSPSSLSASVGDRVTITCRASQSINFWLRWYQQKPGKAPKLLIYGTTSLESGVPSRFSGSGSGTDFTLTISSLQPEDFATYYCQQTATWPFTFGQGTKVEIKR",Kd [11]: < 0.023 nM
0.0718,2.53,0.00177,698000,2.34,0.00146,624000,12.2,–,–,–,–,"CD117-14 (antibody, human IgG1, kappa, V domains shown, detected with anti-human IgG in FACS) VH: EVQLLESGGGLVQPGGSLRLSCAASGFTFSDYAMGWVRQAPGKGLEWVSGIGGSGGSAYYADSVKGRFTISRDNSKNTLYLQMNSLRAEDTAVYYCARGFDSTDGVDYWGQGTLVTVSS VL: DIQMTQSPSSLSASVGDRVTITCQTSQSVSSYLNWYQQKPGKAPKLLIYGASRLESGVPSRFSGSGSGTDFTLTISSLQPEDFATYYCQQSYKTPWTFGGGTKVEIKR","binding result (mouse CD117): no binding; IC50, inhibition of the SCF-stimulated SRF reporter signal (FFLuc/RLuc); same row prints log(IC50) -9.67 and Span -0.1208 [4]: 2.14e-10 M"

# More lines, now with the values behind:
Binder,EC50 [1] [nM],Kd [2] [nM],koff [2] [s⁻¹],kon [2] [M⁻¹ s⁻¹],Kd (cyno CD117) [nM],koff (cyno CD117) [s⁻¹],kon (cyno CD117) [M⁻¹ s⁻¹],MFI Ratio [3],EC50 [6] [nM],koff [8] [s⁻¹],kon [8] [M⁻¹ s⁻¹],Kd [9] [nM],also measured
"CD117-2 (antibody, human IgG1, kappa, V domains shown, detected with anti-human IgG in FACS) VH: EVQLLESGVGLVQPGGSLRLSCAASGFSFGSYAMSWVRQAPGKGLEWVSSISGSGGTTYYADSVKGRFTISRDNSKNTLYLQMNSLRAEDTAVYYCARDPDDYGDYYFDYWGQGTLVTVSS VL: DIQMTQSPSSLSASVGDRVTITCRASQSIGEYLNWYQQKPGKAPKLLIYATSSLQRGVPSRFSGSGSGTDFTLTISSLQPEDFATYYCQQSHTTPYTFGGGTKVEIKR",0.742,208,0.136,655000,607,0.201,331000,30.7,–,–,–,–,"Kd (mouse CD117): 13.7 nM; koff (mouse CD117): 0.00222 s⁻¹; kon (mouse CD117): 161000 M⁻¹ s⁻¹; IC50, inhibition of the SCF-stimulated SRF reporter signal (FFLuc/RLuc); same row prints log(IC50) -9.344 and Span -0.2266 [4]: 4.53e-10 M; EC50 (read off the curve) [5]: ~1 nM"
"SIGLEC-8-27 (antibody, human IgG1, kappa, V domains shown, tested as expressed and purified mAb) VH: EVQLLESGGGLVQPGGSLRLSCAASGFTFSNHVMSWVRQAPGKGLEWVSAISGSGASTYYADSVKGRFTISRDNSKNTLYLQMNSLRAEDTAVYYCARAPIAVAGTADHWGQGTLVTVSS VL: DIQMTQSPSSLSASVGDRVTITCRASQSIGSDLNWYQQKPGKAPKLLIYGASRLESGVPSRFSGSGSGTDFTLTISSLQPEDFATYYCQQTFTNTPLTFGGGTKVEIKR",–,–,–,–,–,–,–,–,904,–,–,–,binding result [7]: no binding
"SIGLEC-8-1 (antibody, human IgG1, kappa, V domains shown, tested as expressed and purified mAb) VH: EVQLLESGGGLVQPGGSLRLSCAASGFTFSNFPMSWVRQAPGKGLEWVSSISGTGSSTYYADSVKGRFTISRDNSKNTLYLQMNSLRAEDTAVYYCVREGRYFYYAMDVWGQGTLVTVSS VL: DIQMTQSPSSLSASVGDRVTITCRASQNIAGYLNWYQQKPGKAPKLLIYAASNLHTGVPSRFSGSGSGTDFTLTISSLQPEDFATYYCQQSYSTPLAFGGGTKVEIKR",–,–,–,–,–,–,–,–,1.26,4.38e-05,150000,0.292,EC50 (read off the curve) [10]: ~5 nM; Kd (SIGLEC-7): 5240 nM; Kd (SIGLEC-2): 196 nM; Kd (SIGLEC-6): 7 nM; Kd (SIGLEC-3): 135 nM; Kd (SIGLEC-5): 5.8 nM
